{
  "source": "patent US20070141059A1",
  "about": "“Use of cathepsin s inhibitors for treating an immune response caused by administration of a small molecule therapeutic or biologic” (AXYS Pharmaceuticals, Inc., priority 2003, published 2007)",
  "origin": "cited, not measured here",
  "key": {"[1]": {"conditions": "patients taking heparin"}},
  "data": [
    {"molecule": "Remicade®: biologic; biological agent that induces the production of specific immunoglobulins", "values": [
      {"measurement": "patients generating neutralizing antibodies", "setting": "patients taking the biologic", "value": 10, "unit": "%"}
    ]},
    {"molecule": "OKT3: murine monoclonal antibody directed towards CD-3 domain of activated T-cells", "values": [
      {"measurement": "patients producing antibodies versus the therapy", "setting": "in clinical trials", "value": "20-40%"}
    ]},
    {"molecule": "heparin", "values": [
      {"measurement": "patients experiencing heparin induced thrombocytopenia (HIT)", "setting": "[1]", "value": "~3", "unit": "%"}
    ]},
    {"molecule": "Betaseron®: biologic; biological agent that induces the production of specific immunoglobulins (protein, UniProt P01574 22-187, looked up, variant C17S, non-glycosylated, E. coli-expressed, biologic; biological agent that induces the production of specific immunoglobulins) Interferon beta: MSYNLLGFLQRSSNFQSQKLLWQLNGRLEYCLKDRMNFDIPEEIKQLQQFQKEDAALTIYEMLQNIFAIFRQDSSSTGWNETIVENLLANVYHQINHLKTVLEEKLEKEDFTRGKLMSSLHLKRYYGRILHYLKAKEYSHCAWTIVRVEILRNFYFINRLTGYLRN", "values": [
      {"measurement": "patients found to have serum-neutralizing activity", "setting": "patients taking the biologic", "value": 45, "unit": "%"}
    ]}
  ]
}
